Target: COVID-19 virus main protease (M^pro) (COVID-19 virus)
Assay: crystal structure

## COVID-19 virus main protease (M^pro) (enzyme)
  stoichiometry N: 2

Reference: doi:10.1101/2020.02.26.964882
